Biological target: CXCR4 (C-X-C chemokine receptor type 4) (UniProt P61073 1-352, limits assumed)
Experiment: cell-based or functional assay

CXCR4 (C-X-C chemokine receptor type 4), sequence (P61073 whole entry): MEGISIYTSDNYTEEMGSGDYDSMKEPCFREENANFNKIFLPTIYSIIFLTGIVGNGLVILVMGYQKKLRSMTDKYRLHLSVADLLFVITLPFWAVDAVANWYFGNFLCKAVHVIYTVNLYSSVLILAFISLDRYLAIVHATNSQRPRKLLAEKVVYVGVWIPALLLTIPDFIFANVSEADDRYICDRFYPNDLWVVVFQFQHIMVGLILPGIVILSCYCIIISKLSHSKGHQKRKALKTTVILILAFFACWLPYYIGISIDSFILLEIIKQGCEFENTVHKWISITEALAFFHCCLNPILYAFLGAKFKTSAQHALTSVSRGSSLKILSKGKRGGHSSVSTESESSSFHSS

B1: anti-CXCR4 IgG antibody HLCX (antibody, V domains shown)
VH: QVQLVESGGGLVQPGGSLRLSCAASGFNIKDTYIHWVRQAPGKGLEWVARIYPTNGYTRYADSVKGRFTISADTSKNTAYLQMNSLRAEDTAVYYCSRETKKYQSYRKCRGGRRWCYQKSYTYNYEDYWGQGTLVTVSS
VL: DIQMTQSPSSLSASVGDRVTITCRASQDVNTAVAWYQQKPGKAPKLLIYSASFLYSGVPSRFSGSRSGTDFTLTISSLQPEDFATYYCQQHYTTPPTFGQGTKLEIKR
IC50 (nM), cytotoxicity, Ramos (CXCR4+) cells, CellTiter-Glo, 4 days: 89.4 nM

B2: anti-CXCR4-NC-MMAE conjugate (antibody, human IgG1, kappa, V domains shown)
VH: B1 VH
VL: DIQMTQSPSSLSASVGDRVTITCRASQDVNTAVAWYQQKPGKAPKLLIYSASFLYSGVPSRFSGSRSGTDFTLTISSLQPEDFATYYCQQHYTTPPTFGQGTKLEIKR
modifications: MMAE on a non-cleavable linker coupled by NHS ester to surface-exposed lysine residues, non-specific; estimated DAR ~2-3
IC50 (nM), cytotoxicity, Jurkat (CXCR4+) cells, CellTiter-Glo, 4 days: 4.6 nM | IC50 (nM), cytotoxicity, Ramos (CXCR4+) cells, CellTiter-Glo, 4 days: 0.89 nM

B3: anti-CXCR4-ValCit-MMAE conjugate (antibody, human IgG1, kappa, V domains shown)
VH: B1 VH
VL: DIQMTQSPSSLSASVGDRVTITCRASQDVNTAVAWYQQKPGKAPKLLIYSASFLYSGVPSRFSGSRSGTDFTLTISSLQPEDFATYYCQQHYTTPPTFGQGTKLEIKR
modifications: auristatin on a Val-Cit linker coupled by NHS ester to surface-exposed lysine residues, non-specific; estimated DAR ~2-3
IC50 (nM), cytotoxicity, Jurkat (CXCR4+) cells, CellTiter-Glo, 4 days: 9.2 nM | IC50 (nM), cytotoxicity, Ramos (CXCR4+) cells, CellTiter-Glo, 4 days: 2 nM
